Source: patent US11661611

Legend:
Assay in all cases: cell_activity
[1] = tested on: ZFN 59581 (synthetic construct); settings: indels with partner 59580, 6 ug mRNA, activated T cells; 83 at 2 ug, 72 at 0.5 ug
[2] = tested on: ZFN 59440 (synthetic construct); settings: indels with partner 59441, 6 ug mRNA, activated T cells; 82 at 2 ug, 59 at 0.5 ug; F6 printed ATCCLAH in Table 1, ATCGLAH in claim
[3] = tested on: ZFN 59580 (synthetic construct); settings: indels with partner 59581, 6 ug mRNA, activated T cells; 83 at 2 ug, 72 at 0.5 ug
[4] = tested on: ZFN 59489 (synthetic construct); settings: indels with partner 59488, 6 ug mRNA, activated T cells; 84 at 2 ug, 60 at 0.5 ug
[5] = tested on: ZFN 59557 (synthetic construct); settings: indels with partner 59558, 6 ug mRNA, activated T cells; 80 at 2 ug, 55 at 0.5 ug
[6] = tested on: ZFN 59558 (synthetic construct); settings: indels with partner 59557, 6 ug mRNA, activated T cells; 80 at 2 ug, 55 at 0.5 ug
[7] = tested on: ZFN 59488 (synthetic construct); settings: indels with partner 59489, 6 ug mRNA, activated T cells; 84 at 2 ug, 60 at 0.5 ug
[8] = tested on: ZFN 59441 (synthetic construct); settings: indels with partner 59440, 6 ug mRNA, activated T cells; 82 at 2 ug, 59 at 0.5 ug

For “ATAGTGCTGCACAAGGCTGACCACATCC (double strand) [CISH exon 3 site 59581]”, the activity [1] was 82%.
“CCAGCAAAGGACGAGGTCTAGAAGGCAG (double strand) [CISH exon 2 site 59440]” was tested, and the activity [2] was 84%.
In the case of “CCGGAAAGGCCAGGATGCGTGGCCTGGA (double strand) [CISH exon 3 site 59580]”, the activity [3] is reported as 82%.
Work on “GAGGAGGTGGCAGAGGGTACCCCAGCCC (double strand) [CISH exon 2 site 59489]” yielded an activity [4] of 89%.
Work on “GAGTCCAGACGGAAGCTGGAGTCGGCAT (double strand) [CISH exon 3 site 59557]” yielded an activity [5] of 84%.
“GATGCGTGGCCTGGACAAGCAGTTGGAG (double strand) [CISH exon 3 site 59558]” showed an activity [6] of 84%.
For “GGAAGGCCCCAGCAGGCAAGGGCTGCAT (double strand) [CISH exon 2 site 59488]”, the activity [7] was 89%.
“GTGGAGCGGACTGGGCAGCGGCCCCTGT (double strand) [CISH exon 2 site 59441]” gave an activity [8] of 84%.
